Measurements: IntAct's records for PubMed 34637754

B1: Autism susceptibility gene 2 protein (Homo sapiens), Q8WXX7 (parent)
chain: MDGPTRGHGLRKKRRSRSQRDRERRSRGGLGAGAAGGGGAGRTRALSLASSSGSDKEDNGKPPSSAPSRPRPPRRKRRESTSAEEDIIDGFAMTSFVTFEALEKDVALKPQERVEKRQTPLTKKKREALTNGLSFHSKKSRLSHPHHYSSDRENDRNLCQHLGKRKKMPKALRQLKPGQNSCRDSDSESASGESKGFHRSSSRERLSDSSAPSSLGTGYFCDSDSDQEEKASDASSEKLFNTVIVNKDPELGVGTLPEHDSQDAGPIVPKISGLERSQEKSQDCCKEPIFEPVVLKDPCPQVAQPIPQPQTEPQLRAPSPDPDLVQRTEAPPQPPPLSTQPPQGPPEAQLQPAPQPQVQRPPRPQSPTQLLHQNLPPVQAHPSAQSLSQPLSAYNSSSLSLNSLSSSRSSTPAKTQPAPPHISHHPSASPFPLSLPNHSPLHSFTPTLQPPAHSHHPNMFAPPTALPPPPPLTSGSLQVAGHPAGSTYSEQDILRQELNTRFLASQSADRGASLGPPPYLRTEFHQHQHQHQHTHQHTHQHTFTPFPHAIPPTAIMPTPAPPMFDKYPTKVDPFYRHSLFHSYPPAVSGIPPMIPPTGPFGSLQGAFQPKTSNPIDVAARPGTVPHTLLQKDPRLTDPFRPMLRKPGKWCAMHVHIAWQIYHHQQKVKKQMQSDPHKLDFGLKPEFLSRPPGPSLFGAIHHPHDLARPSTLFSAAGAAHPTGTPFGPPPHHSNFLNPAAHLEPFNRPSTFTGLAAVGGNAFGGLGNPSVTPNSMFGHKDGPSVQNFSNPHEPWNRLHRTPPSFPTPPPWLKPGELERSASAAAHDRDRDVDKRDSSVSKDDKERESVEKRHSSHPSPAPVLPVNALGHTRSSTEQIRAHLNTEAREKDKPKERERDHSESRKDLAADEHKAKEGHLPEKDGHGHEGRAAGEEAKQLARVPSPYVRTPVVESARPNSTSSREAEPRKGEPAYENPKKSSEVKVKEERKEDHDLPPEAPQTHRASEPPPPNSSSSVHPGPLASMPMTVGVTGIHPMNSISSLDRTRMMTPFMGISPLPGGERFPYPSFHWDPIRDPLRDPYRELDIHRRDPLGRDFLLRNDPLHRLSTPRLYEADRSFRDREPHDYSHHHHHHHHPLSVDPRREHERGGHLDERERLHMLREDYEHTRLHSVHPASLDGHLPHPSLITPGLPSMHYPRISPTAGNQNGLLNKTPPTAALSAPPPLISTLGGRPVSPRRTTPLSAEIRERPPSHTLKDIEAR
B2: Autism susceptibility gene 2 protein homolog (Mus musculus), A0A087WPF7 (parent)
chain: MDGPTRGHGLRKKRRSRSQRDRERRSRAGLGTGAAGGIGAGRTRAPSLASSSGSDKEDNGKPPSSAPSRPRPPRRKRRESTSAEEDIIDGFAMTSFVTFEALEKDVAVKPQERAEKRQTPLTKKKREALTNGLSFHSKKSRLSHSHHYSSDRENDRNLCQHLGKRKKMPKGLRQLKPGQNSCRDSDSESASGESKGFQRSSSRERLSDSSAPSSLGTGYFCDSDSDQEEKASDASSEKLFNTVLVNKDPELGVGALPEHNQDAGPIVPKISGLERSQEKSQDCCKEPVFEPVVLKDPHPQLPQLPSQAQAEPQLQIPSPGPDLVPRTEAPPQFPPPSTQPAQGPPEAQLQPAPLPQVQQRPPRPQSPSHLLQQTLPPVQSHPSSQSLSQPLSAYNSSSLSLNSLSSRSSTPAKTQPAPPHISHHPSASPFPLSLPNHSPLHSFTPTLQPPAHSHHPNMFAPPTALPPPPPLTSGSLQVPGHPAGSTYSEQDILRQELNTRFLASQSADRGASLGPPPYLRTEFHQHQHQHQHTHQHTHQHTFTPFPHAIPPTAIMPTPAPPMFDKYPTKVDPFYRHSLFHSYPPAVSGIPPMIPPTGPFGSLQGAFQPKTSNPIDVAARPGTVPHTLLQKDPRLTDPFRPMLRKPGKWCAMHVHIAWQIYHHQQKVKKQMQSDPHKLDFGLKPEFLSRPPGPSLFGAIHHPHDLARPSTLFSAAGAAHPTGTPFGPPPHHSNFLNPAAHLEPFNRPSTFTGLAAVGGNAFGGLGNPSVTPNSVFGHKDSPSVQNFSNPHEPWNRLHRTPPSFPTPPPWLKPGELERSASAAAHDRDRDVDKRDSSVSKDDKERESVEKRHPSHPSPAPPVPVSALGHNRSSTDPTTRGHLNTEAREKDKPKEKERDHSGSRKDLTTEEHKAKESHLPERDGHSHEGRAAGEEPKQLSRVPSPYVRTPGVDSTRPNSTSSREAEPRKGEPAYENPKKNAEVKVKEERKEDHDLPTEAPQAHRTSEAPPPSSSASASVHPGPLASMPMTVGVTGIHAMNSIGSLDRTRMVTPFMGLSPIPGGERFPYPSFHWDPMRDPLRDPYRDLDMHRRDPLGRDFLLRNDPLHRLSTPRLYEADRSFRDREPHDYSHHHHHHHHPLAVDPRREHERGGHLDERERLHVLREDYEHPRLHPVHPASLDGHLPHPSLLTPGLPSMHYPRISPTAGHQNGLLNKTPPTAALSAPPPLISTLGGRPGSPRRTTPLSAEIRERPPSHTLKDIEAR

Tests used:
[1] = variants of: B1; details: with ep300_human EP300, Q09472
Sequence of ep300_human EP300, Q09472 (Q09472 whole entry): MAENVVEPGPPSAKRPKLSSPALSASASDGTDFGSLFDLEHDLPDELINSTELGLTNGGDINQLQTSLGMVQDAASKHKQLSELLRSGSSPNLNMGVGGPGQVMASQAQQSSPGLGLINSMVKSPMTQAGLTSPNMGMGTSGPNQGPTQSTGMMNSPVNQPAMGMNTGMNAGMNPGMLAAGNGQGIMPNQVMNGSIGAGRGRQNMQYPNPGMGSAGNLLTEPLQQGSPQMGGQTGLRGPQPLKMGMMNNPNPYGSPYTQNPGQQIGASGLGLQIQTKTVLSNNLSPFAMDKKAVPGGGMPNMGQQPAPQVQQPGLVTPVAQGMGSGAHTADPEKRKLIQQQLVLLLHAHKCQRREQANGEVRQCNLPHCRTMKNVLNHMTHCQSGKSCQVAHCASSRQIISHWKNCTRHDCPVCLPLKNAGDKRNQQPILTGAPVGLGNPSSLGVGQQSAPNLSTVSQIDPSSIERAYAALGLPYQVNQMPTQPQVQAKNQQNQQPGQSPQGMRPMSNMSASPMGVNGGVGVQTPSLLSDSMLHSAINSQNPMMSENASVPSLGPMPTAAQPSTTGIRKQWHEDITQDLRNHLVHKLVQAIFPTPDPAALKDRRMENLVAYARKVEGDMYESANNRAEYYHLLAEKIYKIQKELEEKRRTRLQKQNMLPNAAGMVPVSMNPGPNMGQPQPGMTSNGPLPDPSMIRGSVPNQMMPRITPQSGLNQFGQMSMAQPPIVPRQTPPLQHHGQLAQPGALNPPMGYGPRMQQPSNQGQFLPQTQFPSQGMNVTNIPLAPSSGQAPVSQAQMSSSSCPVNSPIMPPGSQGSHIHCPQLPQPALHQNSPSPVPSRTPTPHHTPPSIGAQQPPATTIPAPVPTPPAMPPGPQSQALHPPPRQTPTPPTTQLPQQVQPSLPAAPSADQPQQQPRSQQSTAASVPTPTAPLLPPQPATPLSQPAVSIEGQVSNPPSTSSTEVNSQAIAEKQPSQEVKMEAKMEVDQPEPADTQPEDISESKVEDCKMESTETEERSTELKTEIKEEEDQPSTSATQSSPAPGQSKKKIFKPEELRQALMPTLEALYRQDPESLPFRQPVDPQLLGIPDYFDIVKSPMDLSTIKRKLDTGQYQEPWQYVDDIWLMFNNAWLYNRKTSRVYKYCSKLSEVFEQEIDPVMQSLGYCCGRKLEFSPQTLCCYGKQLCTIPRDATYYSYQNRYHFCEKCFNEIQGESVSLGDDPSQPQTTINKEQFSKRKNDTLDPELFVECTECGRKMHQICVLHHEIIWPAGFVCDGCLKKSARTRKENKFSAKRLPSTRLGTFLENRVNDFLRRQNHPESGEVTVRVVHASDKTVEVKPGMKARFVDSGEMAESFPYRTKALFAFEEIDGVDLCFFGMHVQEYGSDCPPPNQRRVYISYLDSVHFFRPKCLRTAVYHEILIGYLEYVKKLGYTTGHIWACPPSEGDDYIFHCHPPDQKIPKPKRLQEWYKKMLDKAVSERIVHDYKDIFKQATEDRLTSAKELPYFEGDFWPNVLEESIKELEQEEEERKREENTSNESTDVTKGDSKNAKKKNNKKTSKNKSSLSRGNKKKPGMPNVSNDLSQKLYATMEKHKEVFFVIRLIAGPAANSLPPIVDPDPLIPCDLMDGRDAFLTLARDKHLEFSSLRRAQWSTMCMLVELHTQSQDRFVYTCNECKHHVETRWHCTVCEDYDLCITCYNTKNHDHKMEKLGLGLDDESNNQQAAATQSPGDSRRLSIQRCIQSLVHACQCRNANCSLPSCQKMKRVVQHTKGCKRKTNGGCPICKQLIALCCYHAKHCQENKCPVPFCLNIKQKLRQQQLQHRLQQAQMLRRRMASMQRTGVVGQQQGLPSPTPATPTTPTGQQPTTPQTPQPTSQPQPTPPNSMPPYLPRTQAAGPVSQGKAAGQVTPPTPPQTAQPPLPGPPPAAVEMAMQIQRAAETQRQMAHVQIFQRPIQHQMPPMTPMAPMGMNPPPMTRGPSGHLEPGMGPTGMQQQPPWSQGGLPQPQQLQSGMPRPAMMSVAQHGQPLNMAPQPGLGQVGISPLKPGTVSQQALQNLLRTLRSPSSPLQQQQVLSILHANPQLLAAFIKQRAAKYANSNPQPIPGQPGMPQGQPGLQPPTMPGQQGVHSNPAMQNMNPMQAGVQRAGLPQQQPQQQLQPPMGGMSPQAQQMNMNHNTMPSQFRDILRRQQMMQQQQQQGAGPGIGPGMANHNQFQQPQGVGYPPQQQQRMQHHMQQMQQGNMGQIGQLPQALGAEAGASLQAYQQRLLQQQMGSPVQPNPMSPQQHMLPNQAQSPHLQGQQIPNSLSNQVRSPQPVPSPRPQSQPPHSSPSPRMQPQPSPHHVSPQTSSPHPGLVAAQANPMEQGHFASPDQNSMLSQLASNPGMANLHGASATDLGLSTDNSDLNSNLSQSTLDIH

ring2_human RNF2, Q99496 = variants of: B1; details: with ring2_human RNF2, Q99496
Sequence of ring2_human RNF2, Q99496 (Q99496 whole entry): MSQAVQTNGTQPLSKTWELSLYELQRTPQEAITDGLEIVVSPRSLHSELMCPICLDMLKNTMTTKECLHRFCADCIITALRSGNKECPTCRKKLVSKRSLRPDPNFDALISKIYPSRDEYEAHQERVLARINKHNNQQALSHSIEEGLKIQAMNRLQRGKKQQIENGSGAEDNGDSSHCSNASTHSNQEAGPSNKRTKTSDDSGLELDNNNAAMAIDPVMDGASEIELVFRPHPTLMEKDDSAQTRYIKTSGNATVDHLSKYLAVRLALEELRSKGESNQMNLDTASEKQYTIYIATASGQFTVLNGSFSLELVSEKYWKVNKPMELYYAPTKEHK

[2] = variants of: B1; details: with ep300_human EP300, Q09472; remark: listed apart in the source
[3] = variants of: B2; details: with ep300_mouse Ep300, B2RWS6
ring2_mouse Rnf2, Q9CQJ4 = variants of: B2; details: with ring2_mouse Rnf2, Q9CQJ4
Sequence of ring2_mouse Rnf2, Q9CQJ4 (Q9CQJ4 whole entry): as the sequence (Q99496 whole entry) above, with M214V counted along it

[4] = variants of: B2; details: with nf2l1_mouse Nfe2l1, Q61985
Sequence of nf2l1_mouse Nfe2l1, Q61985 (Q61985 whole entry): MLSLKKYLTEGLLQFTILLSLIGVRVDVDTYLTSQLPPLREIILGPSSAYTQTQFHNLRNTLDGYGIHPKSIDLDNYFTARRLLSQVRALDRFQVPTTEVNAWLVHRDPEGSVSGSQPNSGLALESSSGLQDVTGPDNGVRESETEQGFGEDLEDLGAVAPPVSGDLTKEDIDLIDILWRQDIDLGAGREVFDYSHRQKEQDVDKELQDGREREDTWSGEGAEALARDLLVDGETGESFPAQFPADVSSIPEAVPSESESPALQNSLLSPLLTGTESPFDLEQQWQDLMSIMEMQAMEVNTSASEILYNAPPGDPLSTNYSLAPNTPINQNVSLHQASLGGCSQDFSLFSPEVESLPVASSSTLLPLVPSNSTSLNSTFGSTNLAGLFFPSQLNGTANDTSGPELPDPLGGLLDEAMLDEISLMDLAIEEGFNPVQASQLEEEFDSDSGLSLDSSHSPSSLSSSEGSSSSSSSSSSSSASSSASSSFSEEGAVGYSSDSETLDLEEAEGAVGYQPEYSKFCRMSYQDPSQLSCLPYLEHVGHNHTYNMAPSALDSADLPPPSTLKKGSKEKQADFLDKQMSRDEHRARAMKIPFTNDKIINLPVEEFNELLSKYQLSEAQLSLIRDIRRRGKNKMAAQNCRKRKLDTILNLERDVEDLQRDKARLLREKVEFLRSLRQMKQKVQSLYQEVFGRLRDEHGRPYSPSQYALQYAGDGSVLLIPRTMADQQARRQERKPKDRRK

Variant	effect of a mutation on the interaction [1]	effect of a mutation on the interaction (ring2_human RNF2, Q99496)	effect of a mutation on the interaction [2]	effect of a mutation on the interaction [3]	effect of a mutation on the interaction (ring2_mouse Rnf2, Q9CQJ4)	effect of a mutation on the interaction [4]
T534P	disrupting interaction	with no effect	–	–	–	–
P517L	decreasing interaction	increasing interaction	with no effect	–	–	–
T533P	–	–	–	disrupting interaction	with no effect	with no effect
